Reference: patent US20220073617A1 (Five Prime, published 2022)
Residue numbers refer to the chain shown, from its start. Names may count otherwise. Blank lines part the entries; values can stand above or below the binder they belong to.

Legend:
[1] = biological target: T1, monovalent hVISTA-ECD (human VISTA extracellular domain with His tail) (human, UniProt Q9H7M9 33-193); assay: SPR, pH 6.0
T1 construct: analyte flowed over captured antibody; also called huVISTA-His
Description: (§1) Binding of several preparations of each of the '029 progeny clones and of the parent '029 antibodies, formatted as IgG1.3 antibodies, to human VISTA at pH 6.0 and 7.4 was measured by Surface plasmon resonance (SPR). SPR analysis was performed to measure koff and KD binding affinity measurements for VISTA Abs at acidic and neutral pHs using a Biacore® T100 instrument (GE Healthcare). Protein A (ThermoFisher Scientific catalog #21181) was diluted to 20 ug/ml in 10 mM sodium acetate pH 4.5 and immobilized onto flow cells of a CM5 biosensor following the manufacturer's amine coupling protocol (GE Healthcare), targeting 2,000 RU immobilization density of Protein A per flow cell. SPR experiments were conducted at 37° C. using PBST (137 mM sodium chloride, 2.7 mM potassium chloride, 10 mM phosphate buffer, 0.05% Tween® 20) running buffer at pH 7.4 and 6.0. Antibodies were diluted to 25 nM in PBST pH 7.4, and were captured across active biosensor flow cells at 5 ul/min for 60 seconds. […] Two 15 second injections of 10 mM glycine pH 1.5 were used to regenerate the Protein A capture surface between assay cycles. Rate constants ka (kₒₙ) and kd (koff) were derived from reference flow cell and 0 nM blank-subtracted sensorgrams, and were fit to a 1:1 binding model in Biacore® T200 Evaluation Software v.2.0. The affinity constant, KD was calculated as the ratio of rate constants koff/kₒₙ for each VISTA antibody. […]

[2] = biological target: T1, monovalent hVISTA-ECD (human VISTA …); assay: SPR, pH 7.4
Description: as §1

[3] = biological target: T1, monovalent hVISTA-ECD (human VISTA …); assay: SPR
Description: as §1

T1 sequence (Q9H7M9 other isoform, or with tags, fused parts or gaps limits assumed): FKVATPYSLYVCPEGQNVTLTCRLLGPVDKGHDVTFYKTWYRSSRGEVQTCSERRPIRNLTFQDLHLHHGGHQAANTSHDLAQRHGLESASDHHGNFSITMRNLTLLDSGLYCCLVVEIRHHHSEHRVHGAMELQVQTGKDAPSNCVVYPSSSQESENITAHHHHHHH

Kd [1]: 14.5 nM
koff [1]: 0.0561 s⁻¹
kon [1]: 3.86e+06 M⁻¹ s⁻¹
Kd [2]: 4.12 nM
koff [2]: 0.000995 s⁻¹
kon [2]: 242000 M⁻¹ s⁻¹
KD ratio (pH 7.4/pH 6.0) [3]: 0.28
B3: P1-065316 (41F11_VH_A60H VK A64G) (antibody, V domains shown)
VH: QVQLVESGGGLVKPGGSLRLSCAASGFTFSDYYMSWIRQAPGKGLEWVSYISNSGSPIYYHDSVKGRFTISRDNAKNSLYLQMNSLRAEDTAVYYCARDLPGWYFDLWGRGTLVTVSS
VL: EIVLTQSPATLSLSPGERATLSCRASQSVSSYLAWYQQKPGQAPRLLIYDASNRATGIPARFSGSGSGTDFTLTISSLEPEDFAVYYCQQRNNWPRTFGQGTKVEIK
notes: Kabat positions; also called P1-065316-1

Kd [1]: 0.179 nM
koff [1]: 0.00143 s⁻¹
kon [1]: 7.99e+06 M⁻¹ s⁻¹
Kd [2]: 0.255 nM
koff [2]: 0.000158 s⁻¹
kon [2]: 618000 M⁻¹ s⁻¹
KD ratio (pH 7.4/pH 6.0) [3]: 1.42
B5: P1-065325 (41F11_VH_D31E/Y50W/S55E/A60H/Y100E VK_A64G) (antibody, V domains shown)
VH: B3 VH with D31E, Y50W, S56E, Y104E
VL: B3 VL
notes: Kabat positions; also called P1-065325-1

Kd [1]: 22.3 nM
koff [1]: 0.0449 s⁻¹
kon [1]: 2.01e+06 M⁻¹ s⁻¹
Kd [2]: 6.61 nM
koff [2]: 0.00131 s⁻¹
kon [2]: 198000 M⁻¹ s⁻¹
KD ratio (pH 7.4/pH 6.0) [3]: 0.3
B8: P1-065312 (41F11_VH_F27E VK_A64G) (antibody, V domains shown)
VH: B3 VH with F27E, H61A
VL: B3 VL
notes: Kabat positions; also called P1-065312-1

Kd [1]: 29.1 nM
koff [1]: 0.0385 s⁻¹
kon [1]: 1.32e+06 M⁻¹ s⁻¹
Kd [2]: 24.6 nM
koff [2]: 0.00514 s⁻¹
kon [2]: 209000 M⁻¹ s⁻¹
KD ratio (pH 7.4/pH 6.0) [3]: 0.85
B11: P1-065319 (41F11_VH_F100aG VK_A64G) (antibody, V domains shown)
VH: B3 VH with H61A, F105G
VL: B3 VL
notes: Kabat positions; also called P1-065319-1

Kd [1]: 11.9 nM
koff [1]: 0.00791 s⁻¹
kon [1]: 663000 M⁻¹ s⁻¹
Kd [2]: 478 nM
koff [2]: 0.000858 s⁻¹
kon [2]: 1800 M⁻¹ s⁻¹
KD ratio (pH 7.4/pH 6.0) [3]: 40.2
B18: P1-065329 (41F11_VH_D31E/S35Y/Y50W/S55E/A60H/Y100E/F100aG VK_A64G) (antibody, V domains shown)
VH: B3 VH with D31E, S35Y, Y50W, S56E, Y104E, F105G
VL: B3 VL
notes: Kabat positions; also called P1-065329-1

Kd [1]: 7.84 nM
koff [1]: 0.0154 s⁻¹
kon [1]: 1.96e+06 M⁻¹ s⁻¹
Kd [2]: 38.5 nM
koff [2]: 0.0042 s⁻¹
kon [2]: 109000 M⁻¹ s⁻¹
KD ratio (pH 7.4/pH 6.0) [3]: 4.91
B19: P1-065318 (41F11_VH_L96E VK A64G) (antibody, V domains shown)
VH: B3 VH with H61A, L100E
VL: B3 VL
notes: Kabat positions; also called P1-065318-1

Second part, the binder before the results:

B1: P1-064472 (41F11_VH_F27E) (antibody, V domains shown)
VH: B3 VH with F27E, H61A
VL: B3 VL with G64A
notes: Kabat positions; also called P1-064472-1
Kd [1]: 18 nM
koff [1]: 0.0411 s⁻¹
kon [1]: 2.29e+06 M⁻¹ s⁻¹
Kd [2]: 3.6 nM
koff [2]: 0.000987 s⁻¹
kon [2]: 274000 M⁻¹ s⁻¹
KD ratio (pH 7.4/pH 6.0) [3]: 0.2

B2: P1-064526 (41F11_VH_D31E/Y50W/S55E/A60H/Y100E) (antibody, V domains shown)
VH: B3 VH with D31E, Y50W, S56E, Y104E
VL: B3 VL with G64A
notes: Kabat positions; also called P1-064526-1
Kd [1]: 0.245 nM
koff [1]: 0.00094 s⁻¹
kon [1]: 3.84e+06 M⁻¹ s⁻¹
Kd [2]: 0.196 nM
koff [2]: 0.000109 s⁻¹
kon [2]: 555000 M⁻¹ s⁻¹
KD ratio (pH 7.4/pH 6.0) [3]: 0.8

B4: P1-064534 (41F11_VH_D31E/S35Y/Y50W/S55E/A60H/Y100E/F100aG) (antibody, V domains shown)
VH: B3 VH with D31E, S35Y, Y50W, S56E, Y104E, F105G
VL: B3 VL with G64A
notes: Kabat positions; also called P1-064534-1
Kd [1]: 9.05 nM
koff [1]: 0.00649 s⁻¹
kon [1]: 717000 M⁻¹ s⁻¹
Kd [2]: 16.2 nM
koff [2]: 0.000675 s⁻¹
kon [2]: 41700 M⁻¹ s⁻¹
KD ratio (pH 7.4/pH 6.0) [3]: 1.79

B6: P1-064484 (41F11_VH_L96E) (antibody, V domains shown)
VH: B3 VH with H61A, L100E
VL: B3 VL with G64A
notes: Kabat positions; also called P1-064484-1
Kd [1]: 7.18 nM
koff [1]: 0.0153 s⁻¹
kon [1]: 2.13e+06 M⁻¹ s⁻¹
Kd [2]: 26.1 nM
koff [2]: 0.00353 s⁻¹
kon [2]: 135000 M⁻¹ s⁻¹
KD ratio (pH 7.4/pH 6.0) [3]: 3.64

B7: P1-064528 (41F11_VH_D31E/Y50W/S55E/L96E/Y100E) (antibody, V domains shown)
VH: B3 VH with D31E, Y50W, S56E, H61A, L100E, Y104E
VL: B3 VL with G64A
notes: Kabat positions; also called P1-064528-1
Kd [1]: 0.167 nM
koff [1]: 0.000584 s⁻¹
kon [1]: 3.49e+06 M⁻¹ s⁻¹
Kd [2]: 0.768 nM
koff [2]: 0.000227 s⁻¹
kon [2]: 296000 M⁻¹ s⁻¹
KD ratio (pH 7.4/pH 6.0) [3]: 4.6

B9: P1-064500 (41F11_Vk_Q90DA64G) (antibody, V domains shown)
VH: B3 VH with H61A
VL: B3 VL with Q90D
notes: also called P1-064500-1
Kd [1]: 94.1 nM
koff [1]: 0.157 s⁻¹
kon [1]: 1.67e+06 M⁻¹ s⁻¹
Kd [2]: 44.7 nM
koff [2]: 0.0145 s⁻¹
kon [2]: 325000 M⁻¹ s⁻¹
KD ratio (pH 7.4/pH 6.0) [3]: 0.48

B10: P1-064480 (41F11_VH_A60H) (antibody, V domains shown)
VH: B3 VH
VL: B3 VL with G64A
notes: Kabat positions; also called P1-064480-1
Kd [1]: 14.2 nM
koff [1]: 0.0329 s⁻¹
kon [1]: 2.32e+06 M⁻¹ s⁻¹
Kd [2]: 2.36 nM
koff [2]: 0.000755 s⁻¹
kon [2]: 320000 M⁻¹ s⁻¹
KD ratio (pH 7.4/pH 6.0) [3]: 0.17

B12: P1-064502 (41F11_Vk_R96YA64G) (antibody, V domains shown)
VH: B3 VH with H61A
VL: B3 VL with R96Y
notes: also called P1-064502-1
Kd [1]: 81.7 nM
koff [1]: 0.332 s⁻¹
kon [1]: 4.06e+06 M⁻¹ s⁻¹
Kd [2]: 40.8 nM
koff [2]: 0.0123 s⁻¹
kon [2]: 301000 M⁻¹ s⁻¹
KD ratio (pH 7.4/pH 6.0) [3]: 0.5

B13: P1-064540 (41F11_VH_T28P/Y50W/S55E/A60H/Y100E) (antibody, V domains shown)
VH: B3 VH with T28P, Y50W, S56E, Y104E
VL: B3 VL with G64A
notes: Kabat positions; also called P1-064540-1
Kd [1]: 0.268 nM
koff [1]: 0.00192 s⁻¹
kon [1]: 7.16e+06 M⁻¹ s⁻¹
Kd [2]: 0.285 nM
koff [2]: 0.000158 s⁻¹
kon [2]: 553000 M⁻¹ s⁻¹
KD ratio (pH 7.4/pH 6.0) [3]: 1.06

B14: P1-064478 (41F11_VH_Y50E) (antibody, V domains shown)
VH: B3 VH with Y50E, H61A
VL: B3 VL with G64A
notes: Kabat positions; also called P1-064478-1
Kd [1]: 96.5 nM
koff [1]: 0.0121 s⁻¹
kon [1]: 126000 M⁻¹ s⁻¹
Kd [2]: 6.89 nM
koff [2]: 0.000381 s⁻¹
kon [2]: 55400 M⁻¹ s⁻¹
KD ratio (pH 7.4/pH 6.0) [3]: 0.07

B15: P1-064516 (41F11_Vk_V29D/A64G/R91T/R96Y) (antibody, V domains shown)
VH: B3 VH with H61A
VL: B3 VL with V29D, R91T, R96Y
notes: also called P1-064516-1
Kd [1]: 7.81 nM
koff [1]: 0.0178 s⁻¹
kon [1]: 2.28e+06 M⁻¹ s⁻¹
Kd [2]: 19.1 nM
koff [2]: 0.00223 s⁻¹
kon [2]: 117000 M⁻¹ s⁻¹
KD ratio (pH 7.4/pH 6.0) [3]: 2.45

B16: P1-064486 (41F11_VH_F100aG) (antibody, V domains shown)
VH: B3 VH with H61A, F105G
VL: B3 VL with G64A
notes: Kabat positions; also called P1-064486-1
Kd [1]: 34.3 nM
koff [1]: 0.105 s⁻¹
kon [1]: 3.07e+06 M⁻¹ s⁻¹
Kd [2]: 15.3 nM
koff [2]: 0.00341 s⁻¹
kon [2]: 223000 M⁻¹ s⁻¹
KD ratio (pH 7.4/pH 6.0) [3]: 0.45

B17: P1-064494 (41F11_Vk_A25EA64G) (antibody, V domains shown)
VH: B3 VH with H61A
VL: B3 VL with A25E
notes: also called P1-064494-1
Kd [1]: 35.6 nM
koff [1]: 0.0485 s⁻¹
kon [1]: 1.36e+06 M⁻¹ s⁻¹
Kd [2]: 10.3 nM
koff [2]: 0.00207 s⁻¹
kon [2]: 200000 M⁻¹ s⁻¹
KD ratio (pH 7.4/pH 6.0) [3]: 0.29
